Reference: the RNAGym collection of RNA variant scans (doi:10.7554/elife.90254)

B1: OR4K15 (parent)
chain: GUUAACGGUCAUAGGCCAUGGAAACUAGGAGCACCAUUUCGCUGCCAGUGAAGAAAUGAACAAAGAAAAUCUGGGCCAGGCAGGCAUCAAAAGAAAUAGUCUUGCGCUCAACCAGAAAGUCUGUAAUCAUUUUAAGGGUA

Variants of: B1
Assay: self-cleavage, relative activity (ratio to wild type); higher = more cleavage; in vitro, sequencing; the parent is a self-cleaving ribozyme

Going from A64U U72C to A66G G104A, the self-cleavage falls from 0.34 to 0.03.

Compared with A66G G104U, A64C C76U is higher in self-cleavage: 0.02 for the first, 0.26 for the second.

First: A64G A118C
Second: A64U U103A
The self-cleavage of the first is lower: 0.2 for the first, 1.08 for the second.

Going from A64U U103C to A67G C101A, the self-cleavage falls from 0.87 to 0.19.

Compared with A64U A117G, A66U A114U is lower in self-cleavage: 1.18 for the first, 0.04 for the second.

Going from A66G A69C to A66G A69G, the self-cleavage falls from 1.67 to 1.02.

Going from A68U A126G to A64C G75C, the self-cleavage falls from 0.6 to 0.21.

Going from A64U G123A to A66G U102C, the self-cleavage falls from 2.31 to 1.84.

Going from A64C A95G to A68G A96U, the self-cleavage falls from 2.58 to 2.13.

Compared with A68G A96C, A67G G137A is higher in self-cleavage: 1.42 for the first, 1.67 for the second.

Compared with A66G A82G, A67G A95G is higher in self-cleavage: 0.26 for the first, 2.37 for the second.

First: A64G G106A
Second: A66G A114G
The self-cleavage of the first is lower: 0.04 for the first, 0.48 for the second.

First: A66G A114C
Second: A66G G80C
The self-cleavage of the first is lower: 0.06 for the first, 0.12 for the second.

First: A67G U130C
Second: A64C A94G
The self-cleavage of the first is lower: 1.25 for the first, 2.25 for the second.

First: A66G A126U
Second: A68U A78G
The self-cleavage of the first is higher: 1.54 for the first, 0.27 for the second.

Going from A64G A125G to A64G A125U, the self-cleavage rises from 0.28 to 2.92.

Going from A68G U132A to A68G U132C, the self-cleavage rises from 1.27 to 1.38.

Compared with A64G A114G, A64G A114U is lower in self-cleavage: 0.31 for the first, 0.1 for the second.

First: A68U A140U
Second: A63U U120C
The self-cleavage of the first is higher: 1.65 for the first, 1.25 for the second.

Compared with A68G C128U, A66G C105G is lower in self-cleavage: 1.44 for the first, 0.03 for the second.

Going from A68U A116G to A66U A125G, the self-cleavage falls from 1.07 to 0.25.

First: A67U U100G
Second: A68U A125C
The self-cleavage of the first is lower: 1.34 for the first, 1.36 for the second.

First: A66G U139A
Second: A66G U108C
The self-cleavage of the first is higher: 1.72 for the first, 0.02 for the second.

A66G U108A and A66C C113A are the same in self-cleavage: 0.02 for the first, 0.02 for the second.

Going from A68U U103A to A68G U102C, the self-cleavage rises from 0.3 to 1.9.

Compared with A67G U132C, A66U A91G is lower in self-cleavage: 1.66 for the first, 0.65 for the second.

Compared with A64U U127C, A67G C88U is higher in self-cleavage: 1.66 for the first, 1.97 for the second.

Going from A68U U97G to A64G A91G, the self-cleavage falls from 1.94 to 1.33.

Compared with A64G A110U, A67G U87A is higher in self-cleavage: 1.1 for the first, 1.28 for the second.

First: A68G U70A
Second: A68G A110G
The self-cleavage of the first is higher: 1.12 for the first, 0.25 for the second.

First: A68G A110U
Second: A66U U122C
The self-cleavage of the first is higher: 1.49 for the first, 1.09 for the second.

Going from A68G U139C to A68G C105U, the self-cleavage falls from 0.95 to 0.14.

Going from A68G G83A to A68G A134G, the self-cleavage falls from 1.73 to 1.5.

First: A67G A125G
Second: A64G A94G
The self-cleavage of the first is lower: 0.57 for the first, 1.74 for the second.

Compared with A64G A94U, A66U A96G is lower in self-cleavage: 1.61 for the first, 1.17 for the second.

Compared with A64C, A64G is lower in self-cleavage: 1.69 for the first, 1.2 for the second.

Compared with A64U, A64G A96C is lower in self-cleavage: 1.23 for the first, 0.76 for the second.

Going from A68U A92G to A64U A89U, the self-cleavage rises from 0.44 to 0.92.

Compared with A67C U131C, A66G U72A is lower in self-cleavage: 1.86 for the first, 0.32 for the second.

Compared with A67G A94G, A67G A94U is higher in self-cleavage: 1.74 for the first, 1.92 for the second.

Compared with A68G C77A, A67G A82U is lower in self-cleavage: 0.54 for the first, 0.07 for the second.

Going from A67G A89G to A64U A116G, the self-cleavage falls from 0.82 to 0.21.

Compared with A66G A129G, A66U C85U is higher in self-cleavage: 0.85 for the first, 1.09 for the second.

First: A67G A134U
Second: A64G G74A
The self-cleavage of the first is higher: 1.12 for the first, 0.36 for the second.

First: A64G G74U
Second: A67G C113U
The self-cleavage of the first is higher: 0.24 for the first, 0.17 for the second.

Going from A68U A117G to A67U G75A, the self-cleavage falls from 0.37 to 0.06.

First: A67G A126U
Second: G65U U87C
The self-cleavage of the first is lower: 0.87 for the first, 2.23 for the second.

Going from A68U G137A to A67U A116C, the self-cleavage falls from 1.39 to 0.1.

Going from A67G A117G to A67G A117C, the self-cleavage falls from 1.66 to 0.17.

First: A67G A117U
Second: A68G C112U
The self-cleavage of the first is higher: 0.32 for the first, 0.02 for the second.

Going from A66U C81U to A64G U130C, the self-cleavage rises from 0.05 to 0.45.

Compared with A67G A98G, A66U U127C is higher in self-cleavage: 0.36 for the first, 0.58 for the second.

First: A64G A135U
Second: A67G G99U
The self-cleavage of the first is higher: 1.28 for the first, 0.62 for the second.

Compared with A66G A118G, A66G A118C is lower in self-cleavage: 2.17 for the first, 1.11 for the second.

Compared with A67U A78C, A66U U102C is higher in self-cleavage: 0.23 for the first, 1.8 for the second.

Compared with A63U U103C, A68G A89G is higher in self-cleavage: 1.58 for the first, 2.04 for the second.

Going from A66U A69G to A67C U139C, the self-cleavage rises from 1.06 to 2.18.

Compared with A68U A96G, A68G A98U is lower in self-cleavage: 1.98 for the first, 0.78 for the second.

Compared with A68G A98G, A67U U122A is higher in self-cleavage: 0.16 for the first, 1.36 for the second.

First: A64G A134G
Second: A64G C77U
The self-cleavage of the first is lower: 1.41 for the first, 1.43 for the second.

First: A68U A111G
Second: A67G
The self-cleavage of the first is lower: 0.02 for the first, 1.1 for the second.

Going from A67C to A67U, the self-cleavage falls from 1.83 to 1.54.

Compared with A68U A82G, A68U A82U is lower in self-cleavage: 0.75 for the first, 0.25 for the second.

Going from A68U U108A to G65A A66G, the self-cleavage rises from 0.05 to 1.13.

Compared with A68U G119A, A64G A68U is lower in self-cleavage: 1.58 for the first, 1.42 for the second.

Compared with A67G A68C, A67G A68G is higher in self-cleavage: 0.53 for the first, 1.5 for the second.

Compared with A68G A94G, A68G A94U is higher in self-cleavage: 1.34 for the first, 2.3 for the second.

Compared with A63U U100C, A68G A140G is lower in self-cleavage: 2.04 for the first, 1.91 for the second.

First: A67U U130A
Second: A64U U108C
The self-cleavage of the first is higher: 1.56 for the first, 0.02 for the second.

Compared with A67G A135G, A67G A111G is lower in self-cleavage: 2.06 for the first, 0.02 for the second.

Going from A67G U103G to A67G U103A, the self-cleavage rises from 0.05 to 0.89.

Going from A64G A86U to A68G U72C, the self-cleavage falls from 2.21 to 0.29.

Going from A68G U72A to A68G U122C, the self-cleavage rises from 0.26 to 1.18.

Going from A67G U100C to A67G C77A, the self-cleavage falls from 2.32 to 0.71.

Compared with A66U U87C, A64U A140G is higher in self-cleavage: 0.42 for the first, 1.39 for the second.

Compared with A64G C101U, A67G A140U is higher in self-cleavage: 0.42 for the first, 1.93 for the second.

Compared with A64G G123A, A67G A110G is lower in self-cleavage: 1.66 for the first, 0.11 for the second.

First: A66G A89G
Second: A68G G75A
The self-cleavage of the first is higher: 1.62 for the first, 0.1 for the second.

Going from A68G U97C to A66G A96G, the self-cleavage rises from 1.3 to 1.87.

First: A66U A110G
Second: A68U A86G
The self-cleavage of the first is lower: 0.14 for the first, 1.44 for the second.

Compared with A67G C107A, A67G A69G is higher in self-cleavage: 0.04 for the first, 0.77 for the second.

Compared with A67G U70C, A67U A90G is higher in self-cleavage: 1.05 for the first, 1.72 for the second.

First: A68C U132C
Second: A64G G137A
The self-cleavage of the first is higher: 1.61 for the first, 0.96 for the second.

Variant A67U A69U has a self-cleavage of 1.69.
